Here are results for eight molecules from patent US20230094162A1 (MacroGenics, published 2023).

Assay [1] deals with T1, CD137 expressed on the cell surface (CHO/CD137 cells) (UniProt Q07011 24-255, limits assumed).
T1 construct: whole, on cells; also called cell surface CD137; Jurkat-NF-κB-Luc reporter cells overexpressing CD137
In words: flow cytometry (FACS) on CHO cells expressing CD137, MFI.

Assay [2] concerns the target T2, PD-L1 expressed on the cell surface (CHO/PD-L1 cells) (UniProt Q9NZQ7 19-290). Put plainly: cell-based or functional assay.
Assay [3] concerns the target T2, PD-L1 expressed on the cell surface …. In words: flow cytometry (FACS) on JIMT-1 cells (PD-L1 positive), MFI. On the technique in general: In flow cytometry, cells or beads pass a laser one at a time.
The target of assay [4] is T1, CD137 expressed on the cell surface …. In words: flow cytometry (FACS) on CHO cells expressing CD137, MFI. The protocol:
FACS analysis to evaluate the test articles for binding to cell surface CD137 was performed essentially as follows: 100 μL of CHO cells expressing CD137 (CHO/CD137) (1.0×10⁵ to 1×10⁶ cells/well) and 100 μL of serially diluted test article or control was added to each well of microtiter assay plate(s), mixed and incubated at RT for about 30 min. The cells were washed with FACS Buffer and secondary antibody (goat anti-human-APC, PE, or FITC) was then added to each well (1:1000), after which, the components were mixed and the wells were incubated at RT for about 30 min. Cells were washed and resuspended in 250 μL FACS Buffer and analyzed by flow cytometry (BD LSR Fortessa or FACSCanto II) for cell events collection. Data analysis were performed via FloJo v10.
This is another data set of the same source.

The target in assay [5] is T2, PD-L1 expressed on the cell surface …. Put plainly: cell-based or functional assay. The source holds these as a separate data set.
The target in assay [6] is T1, CD137 expressed on the cell surface …. In words: flow cytometry (FACS) on CHO cells expressing CD137, MFI. The source holds these as a separate data set.
Assay [7] deals with T2, PD-L1 expressed on the cell surface …. Put plainly: cell-based or functional assay. The source holds these as a separate data set.
Assay [8] shares this target. Put plainly: cell-based or functional assay. The source holds these as a separate data set.
The target is the same in assay [9]. Put plainly: cell-based or functional assay. This is another data set of the same source.
Assay [10] has the same target. In words: flow cytometry (FACS) on CHO cells expressing PD-L1, MFI. The protocol:
(§1) FACS analysis to evaluate the test articles for binding to cell surface PD-L1 was performed essentially as follows: 100 μL of CHO cells expressing PD-L1 (CHO/PD-L1) (1.0×10⁵ to 1.0×10⁶ cells/well) and 100 μL of serially diluted test article was added to each well of microtiter assay plate(s), mixed and incubated at RT for about 30 min. The cells were washed with FACS Buffer and secondary antibody (goat anti-human-FITC, PE, or APC) was then added to each well, after which, the components were mixed and the wells were incubated at RT for about 30 min. Cells were washed and resuspended in 250 μL FACS Buffer and analyzed by flow cytometry (BD LSR Fortessa or FACSCanto II) for cell events collection. Data analysis were performed via FloJo v10.
Test articles were used at 10 μg/mL and five-fold serial dilutions for the FACS analysis and at 50 μg/mL and five-fold serial dilutions for the PD-L1 reporter assay.

Assay [11] addresses T3, soluble PD-L1 fused to a His tag (shPD-L1) (UniProt Q9NZQ7 19-238, limits assumed).
T3 construct: the species of shPD-L1 is not written out; also called shPD-L1-his; not shown: His tag
Put plainly: ELISA on plate-coated shPD-L1. The protocol:
For the hybridoma supernatants anti-CD137 antibody was utilized at 1.0 μg/mL and six three-fold serial dilutions. The amount of test article binding to the immobilized CD137 (human or cynomolgus monkey) was assessed using a goat anti-mouse IgG-HRP secondary antibody. All samples were analyzed on a plate reader (Victor 2 Wallac, Perkin Elmer) and EC50 values were calculated from dose-response curves by nonlinear regression analysis.
The binding of antibodies comprising these substitutions were evaluated for binding to a soluble PD-L1- fused to a His tag (shPD-L1) using an ELISA assay essentially as described above for CD137 binding except the plates were coated with shPD-L1 at 0.5 μg/mL and a goat anti-human IgG-HRP secondary antibody was used.
In general terms: An ELISA detects its analyte on a solid surface through an enzyme-linked reagent.

Assay [12] deals with T2, PD-L1 expressed on the cell surface …. In words: flow cytometry (FACS) on CHO cells expressing PD-L1, MFI. How it is done:
as §1
This is another data set of the same source.

Positions count from the first letter of the chain named. In names and notes the source's numbering stands. Like-named read-outs stand apart in the source and are kept apart here.

One may read the EC50 (read off the curve) as the midpoint of the concentration-response curve.

T1 sequence (Q07011 24-255 limits assumed): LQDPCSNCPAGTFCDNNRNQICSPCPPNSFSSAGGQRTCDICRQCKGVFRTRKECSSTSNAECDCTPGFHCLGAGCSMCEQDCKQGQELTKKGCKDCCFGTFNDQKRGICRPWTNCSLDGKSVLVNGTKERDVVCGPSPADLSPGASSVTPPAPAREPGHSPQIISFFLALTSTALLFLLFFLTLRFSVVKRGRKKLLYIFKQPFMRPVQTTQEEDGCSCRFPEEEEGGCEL
T2 sequence (Q9NZQ7 19-290): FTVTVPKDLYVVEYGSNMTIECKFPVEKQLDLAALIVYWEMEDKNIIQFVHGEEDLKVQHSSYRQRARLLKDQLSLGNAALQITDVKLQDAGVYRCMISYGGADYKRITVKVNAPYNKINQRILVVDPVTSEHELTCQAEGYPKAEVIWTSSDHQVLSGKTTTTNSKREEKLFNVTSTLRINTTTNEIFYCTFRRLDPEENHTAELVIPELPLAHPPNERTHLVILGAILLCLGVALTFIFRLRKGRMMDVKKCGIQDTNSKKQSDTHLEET
T3 sequence (Q9NZQ7 19-238 limits assumed): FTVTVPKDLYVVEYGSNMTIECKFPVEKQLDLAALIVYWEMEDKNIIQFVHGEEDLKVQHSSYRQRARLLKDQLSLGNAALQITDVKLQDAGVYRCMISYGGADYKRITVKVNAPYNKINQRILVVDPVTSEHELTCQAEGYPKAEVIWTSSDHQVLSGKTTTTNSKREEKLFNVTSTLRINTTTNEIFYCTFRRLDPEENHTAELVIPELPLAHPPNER

B1: TRIDENT-A5 (bispecific antibody, human IgG1, kappa, L234A L235A)
chain 1: EIVMTQSPATLSLSPGERATLSCRASQSVSSNYLSWYQQKPGQAPRLLIYGASTRATGIPARFSGSGSGTDFTLTISSLQPEDFAVYYCQQDYDLPWTFGQGTKVEIKGGGSGGGGQVQLQESGPGLVKPSETLSLTCTVSGGSISSYYWSWIRQPPGKGLEWIGRIYTSGSTNYNPSLKSRVTMSVDTSKNQFSLKLSSVTAADTAVYYCARDGWYDEDYNYYGMDVWGQGTTVTVSSGGCGGGEVAALEKEVAALEKEVAALEKEVAALEKGGGDKTHTCPPCPAPEAAGGPSVFLFPPKPKDTLYITREPEVTCVVVDVSHEDPEVKFNWYVDGVEVHNAKTKPREEQYNSTYRVVSVLTVLHQDWLNGKEYKCKVSNKALPAPIEKTISKAKGQPREPQVYTLPPSREEMTKNQVSLWCLVKGFYPSDIAVEWESNGQPENNYKTTPPVLDSDGSFFLYSKLTVDKSRWQQGNVFSCSVMHEALHNHYTQKSLSLSPGK
chain 2: EIVMTQSPATLSLSPGERATLSCRASQSVSSNYLSWYQQKPGQAPRLLIYGASTRATGIPARFSGSGSGTDFTLTISSLQPEDFAVYYCQQDYDLPWTFGQGTKVEIKGGGSGGGGQVQLQESGPGLVKPSETLSLTCTVSGGSISSYYWSWIRQPPGKGLEWIGRIYTSGSTNYNPSLKSRVTMSVDTSKNQFSLKLSSVTAADTAVYYCARDGWYDEDYNYYGMDVWGQGTTVTVSSGGCGGGKVAALKEKVAALKEKVAALKEKVAALKE
heavy: EVQLVESGGGLVQPGGSLRLSCAASGFTFSSYTMSWVRQAPGKGLEWVAYISIKGGTTYYPDTVKGRFTISRDNAKNSLYLQMNSLRAEDTAVYYCARQGLPYYGDYWGQGTLVTVSSASTKGPSVFPLAPSSKSTSGGTAALGCLVKDYFPEPVTVSWNSGALTSGVHTFPAVLQSSGLYSLSSVVTVPSSSLGTQTYICNVNHKPSNTKVDKRVEPKSCDKTHTCPPCPAPEAAGGPSVFLFPPKPKDTLYITREPEVTCVVVDVSHEDPEVKFNWYVDGVEVHNAKTKPREEQYNSTYRVVSVLTVLHQDWLNGKEYKCKVSNKALPAPIEKTISKAKGQPREPQVYTLPPSREEMTKNQVSLSCAVKGFYPSDIAVEWESNGQPENNYKTTPPVLDSDGSFFLVSKLTVDKSRWQQGNVFSCSVMHEALHNRYTQKSLSLSPGK
light: DIQMTQSPSSLSASVGDRVTITCKASQDVNEAVAWYQQKPGKAPKLLIYWASTRHTGVPSRFSGSGSGTDFTLTISSLQPEDFATYYCQQHYNTPLTFGQGTKVEIKRTVAAPSVFIFPPSDEQLKSGTASVVCLLNNFYPREAKVQWKVDNALQSGNSQESVTEQDSKDSTYSLSSTLTLSKADYEKHKVYACEVTHQGLSSPVTKSFNRGEC
notes: Trivalent; two CD137 MAB-6(1.2) sites, one hPD-L1 MAB-2(3.2) site
For B1, the “EC50 (read off the curve)” value in assay [1] was roughly 0.03 µg/mL.

B2: TRIDENT-A6 (bispecific antibody, human IgG1, kappa, L234A L235A)
chain 1: B1 chain 1 with Y37F
chain 2: B1 chain 2 with Y37F
heavy: B1 heavy
light: B1 light
notes: Trivalent; two CD137 MAB-6(1.3) sites, one hPD-L1 MAB-2(3.2) site
For the molecule B2, the “EC50 (read off the curve)” value in assay [2] was roughly 0.5 µg/mL; in assay [1], roughly 0.01 µg/mL.

B3: DART-A4 (bispecific antibody)
chain 1: DIQMTQSPSSLSASVGDRVTITCKASQDVNEAVAWYQQKPGKAPKLLIYWASTRHTGVPSRFSGSGSGTDFTLTISSLQPEDFATYYCQQHYNTPLTFGQGTKVEIKGGGSGGGGQVQLQESGPGLVKPSETLSLTCTVSGGSISSYYWSWIRQPPGKGLEWIGRIYTSGSTNYNPSLKSRVTMSVDTSKNQFSLKLSSVTAADTAVYYCARDGWYDEDYNYYGMDVWGQGTTVTVSSGGCGGGEVAACEKEVAALEKEVAALEKEVAALEKLEPKSADKTHTCPPCPAPEAAGGPSVFLFPPKPKDTLYITREPEVTCVVVDVSHEDPEVKFNWYVDGVEVHNAKTKPREEQYNSTYRVVSVLTVLHQDWLNGKEYKCKVSNKALPAPIEKTISKAKGQPREPQVYTLPPSREEMTKNQVSLTCLVKGFYPSDIAVEWESNGQPENNYKTTPPVLDSDGSFFLYSKLTVDKSRWQQGNVFSCSVMHEALHNHYTQKSLSLSPGK
chain 2: EIVMTQSPATLSLTPGERATLSCRASQSVSSNYLSWFQQIPGQAPRLLIYGASTRATGIPARFSGSGSGTDFTLTISSLQPEDFAVYYCQQDYDLPWTFGQGTKVEIKGGGSGGGGEVQLVESGGGLVQPGGSLRLSCAASGFTFSSYTMSWVRQAPGKGLEWVAYISIKGGTTYYPDTVKGRFTISRDNAKNSLYLQMNSLRAEDTAVYYCARQGLPYYGDYWGQGTLVTVSSGGCGGGKVAACKEKVAALKEKVAALKEKVAALKE
notes: Tetravalent; CD137 MAB-6(1.1) and hPD-L1 MAB-2(3.2)
For the molecule B3, the “EC50 (read off the curve)” value in [3] was roughly 0.004 µg/mL; in assay [4] it was roughly 0.04 µg/mL; in assay [5], roughly 0.2 µg/mL; in assay [6], roughly 0.02 µg/mL; in [7], roughly 0.1 µg/mL; in [8], roughly 0.08 µg/mL.

B4: hPD-L1 MAB-2(1.1) (antibody, V domains shown)
VH: EVQLVESGGGLVQPGGSLRLSCAASGFTFSSYTMSWVRQAPGKGLEWVAYISIGGGTTYYPDTVKGRFTISRDNAKNTLYLQMNSLKTEDTAVYYCARQGLPYYFDYWGQGTLVTVSS
VL: DIQMTQSPSSLSASVGDRVTITCKASQDVNTAVAWYQQKPGKAPKLLIYWASTRHTGVPSRFSGSGSGTDFTLTISSLQPEDFATYYCQQHYNTPLTFGQGTKVEIK
notes: Humanized anti-PD-L1 antibody; also called hPD-1 MAB-2(1.1); hPD-1 MAB-2 VH1
For the molecule B4, the “EC50 (read off the curve)” value is roughly 0.005 µg/mL in assay [3], roughly 0.04 µg/mL in assay [9], roughly 0.03 µg/mL in [10] and roughly 0.07 µg/mL in [8].

B5: hPD-1 MAB-2 VH1 + T77S (antibody, V domains shown)
VH: B4 VH with T78S
VL: B4 VL
notes: Deimmunization variant of hPD-L1 MAB-2(1.1)
As to B5, the binding result in assay [11] is recorded as “binds”.

B6: hPD-L1 MAB-2F (antibody) (antibody, V domains shown)
VH: B4 VH with G54K, F105G
VL: B4 VL with T31E
Turning to B6, the “EC50 (read off the curve)” value was roughly 0.2 µg/mL in assay [5], roughly 0.2 µg/mL in [2] and roughly 0.01 µg/mL in [12].

B7: hPD-1 MAB-2 VH1 + K83R and T84A (antibody, V domains shown)
VH: B4 VH with K87R, T88A
VL: B4 VL
notes: as for B5
On to B7, for which the binding result in assay [11] was “binds”.

B8: hPD-1 MAB-2 VH1 + T77S, K83R and T84A (antibody, V domains shown)
VH: B4 VH with T78S, K87R, T88A
VL: B4 VL
notes: also called hPD-L1 MAB-2 VH2; hPD-L1 MAB-2(2.1)
Consider B8, for which the binding result in assay [11] was “binds”.
